According to article PMC10954369:

Target: T1, GST-JunB (mouse, UniProt P09450 1-344)
T1 sequence: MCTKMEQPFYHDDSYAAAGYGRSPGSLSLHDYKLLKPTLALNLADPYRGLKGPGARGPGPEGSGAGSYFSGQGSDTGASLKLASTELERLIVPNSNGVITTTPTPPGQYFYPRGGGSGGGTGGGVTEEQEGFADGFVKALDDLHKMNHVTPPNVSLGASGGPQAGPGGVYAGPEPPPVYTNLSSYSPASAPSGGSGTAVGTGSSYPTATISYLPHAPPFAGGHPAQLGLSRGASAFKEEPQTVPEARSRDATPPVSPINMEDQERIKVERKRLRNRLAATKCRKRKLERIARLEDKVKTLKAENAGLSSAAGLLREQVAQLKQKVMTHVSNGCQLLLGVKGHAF
Assay: EMSA

B1: Erra promoter TRE probe WT (-1305/-1315) (dsDNA)
DNA 1: AGTGAGTGACTCAGAGGACTT
DNA 2: AAGTCCTCTGAGTCACTCACT
B1: binds.
